Laboratory results taken from US20230090156A1 (NANYANG TECHNOLOGICAL UNIVERSITY, published 2023).

T1: human cANGPTL4 (C-terminal fragment of Angiopoietin-like 4 protein) (human, UniProt Q9BY76 186-406, limits assumed)
T1 construct: domain: C-terminal fragment (cANGPTL4); Purified cANGPTL4 was immobilised by amine coupling on the CM5 chip for SPR and on carboxylated microwell plates for ELISA; also called purified cANGPTL4; human cANGPTL4 antigen
T1 sequence (looked up): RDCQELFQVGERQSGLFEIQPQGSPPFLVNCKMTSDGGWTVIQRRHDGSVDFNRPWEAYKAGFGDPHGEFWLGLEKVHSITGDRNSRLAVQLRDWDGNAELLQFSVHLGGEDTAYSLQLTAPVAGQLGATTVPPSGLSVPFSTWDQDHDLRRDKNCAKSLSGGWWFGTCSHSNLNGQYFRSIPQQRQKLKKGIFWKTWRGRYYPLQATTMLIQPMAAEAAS


Target: T1, human cANGPTL4 (C-terminal fragment of …)
Assay: SPR (BIACORE 3000), cANGPTL4 amine-coupled to CM5 chip, antibody as analyte
Method: Surface Plasmon Resonance (SPR): Sensor CM5 chips and amine coupling kits were from GE Healthcare. Purified cANGPTL4 was immobilized onto a CM5-carboxylated dextran sensor chip by amine coupling using the Surface Prep Module of BIACORE 3000 as recommended by the manufacturer (BIAcore). Antuzumab (0.16, 0.32, 0.63, 1.25, 2.50, and 5.0 μm) diluted and buffered with 50 mm Tris, pH 8.0, was introduced into the cANGPTL4-conjugated CM5 chip at a flow rate of 5 μI/min for 10 min with running buffer (50 mm Tris, pH 8.0, 100 mm NaCl). After incubation for 45 s, the chamber was washed with the same buffer, and the bound molecules were subsequently eluted using 10 mm glycine, pH 6.0. The CM5 chip was reused after washing with running buffer for 10 min at 20 μI/min. Each sensorgram was corrected by subtracting a sensorgram obtained from a reference flow cell with no immobilized protein. Global fitting of the SPR data was used to determine the association (Kₐₛₛ) and dissociation (Kdiss) with Scrubber 2 software. Values are given as the mean±S.D. of three independent preparations of Antuzumab.

Fold increase (affinity against control 11F6C4) [fold] | Kd [nM] | koff [s⁻¹] | kon [M⁻¹ s⁻¹] | Binder
7.86 | 1.05 | 0.000693 | 658000 | Antuzumab 1 (antibody, V domains shown, Humanized monoclonal antibody made in CHO cells; also called ANG49; ANGH3 + ANGK3) VH: QVTLKESGPTLVKPTQTLTLTCTFSGFSLSTSGMGVGWIRQPPGKALEWLAHIWWDDDKYYNPSLKSRLTISKDTSKNQVVLTMTNMDPVDTATYYCARKDYGSSYDYWGQGTTVTVSS VL: DIVMTQSPLSLPVTPGEPASISCKASQSVDYDGDSYLNWYLQKPGQSPRLLIYTASNLESGVPDRFSGSGSGTDFTLKISRVEAEDVGVYYCFQSNEDPWTFGQGTKLEIK
5.37 | 1.54 | 0.000764 | 495000 | Antuzumab 2 (antibody, V domains shown, Humanized monoclonal antibody made in CHO cells; also called ANG50; ANGH4 + ANGK4) VH: QITLKESGPTLVKPTQTLTLTCTFSGFSLSTSGMGVGWIRQPPGKALEWLAHIWWDDDKYYNPSLKSRLTITKDTSKNQVDLTMTFMDPWDTATYYCAHKDYGSSYDYWGQGTLVTVSS VL: DIQMTQSPSSLSASVGDRVTITCKASQSVDYDGDSYLNWYQQKPGKAPNLLIYTASNLESGVPSRFSGSGSGTDFTLTISSLQPEDFATYYCQQSNEDPWTFGEGTKVEIK

Second part, the binder before the results:

Binder | Fold increase (affinity against control 11F6C4) [fold] | Kd [nM] | koff [s⁻¹] | kon [M⁻¹ s⁻¹]
Antuzumab 3 (antibody, V domains shown, Humanized monoclonal antibody made in CHO cells; also called ANG27; ANGH1 + ANGK1) VH: QITLKESGPTLVKPTQTLTLTCTFSGFSLSTSGMGVGWIRQPPGKALEWLAHIWWDDDKYYNPSLKSRLTITKDTSKNQVVLTMTNMDPVDTATYYCARKDYGSSYDYWGQGTLVTVSS VL: DIVMTQSPDSLAVSLGERATINCKASQSVDYDGDSYLNWYQQKPGQPPKLLIYTASNLESGVPDRFSGSGSGTDFTLTISSLQAEDVAVYYCQQSNEDPWTFGQGTKVEIK | 1.85 | 4.47 | 0.000948 | 212000
murine monoclonal antibody mAb11F6C4 (antibody, V domains shown, Murine monoclonal antibody, the parent of the humanized antibodies; also called Control 11F6C4; original mouse-derived mAb) VH: QITLKESGPGILKPSQTLSLTCSFSGFSLSTSGMGVGWIRQPSGKGLEWLAHIWWDDDKYYNPSLKSQLTISKDTSRNQVFLKITSVDTADTATYYCARKDYGSSYDYWGQGTTLTVSS VL: DIVLTQSPASLAVSLGQRATISCKASQSVDYDGDSYLNWFQQKPGQPPKLLIYTASNLESGIPARFSGSGSGTDFTLNIHPVEEEDAATYYCQQSNEDPWTFGGGTTLEIK | 1 | 8.28 | 0.000905 | 109000
